Fold increase of L1/LC3 proximity ligation spots with L1 antibody 557 against unstimulated neurons data for 1 substance are collected here from publication PMC10419456.

The experiment has as its target LC3 (microtubule-associated protein 1 light chain 3), endogenous (mouse (endogenous in mouse brain and cultured mouse neurons)) (UniProt Q91VR7). Put plainly: proximity ligation; cultured mouse cortical and cerebellar neurons (wild-type, L1_(687) and L1_(858–863) mutant), without or with L1 antibody 557 (50 µg/mL, 2 h) and without or with tat-LIRWT peptide; fixed, Duolink PLA with mouse L1 antibody C-2 and rabbit LC3 antibody; red spots per cell.

On to “full-length L1 (neural cell adhesion molecule L1) (from UniProt P11627 20-1260) (natural protein)”, for which the fold increase of L1/LC3 proximity ligation spots with L1 antibody 557 against unstimulated neurons came out at 4 fold.
